# Assay results as given in patent US20170210813A1 (Regeneron, published 2017).
# T1: Macaca fascicularis PDGFRb.mmh (Macaca fascicularis)
# T1 construct: Soluble monomeric construct; also called mfPDGFRb.mmh
# T1 chain: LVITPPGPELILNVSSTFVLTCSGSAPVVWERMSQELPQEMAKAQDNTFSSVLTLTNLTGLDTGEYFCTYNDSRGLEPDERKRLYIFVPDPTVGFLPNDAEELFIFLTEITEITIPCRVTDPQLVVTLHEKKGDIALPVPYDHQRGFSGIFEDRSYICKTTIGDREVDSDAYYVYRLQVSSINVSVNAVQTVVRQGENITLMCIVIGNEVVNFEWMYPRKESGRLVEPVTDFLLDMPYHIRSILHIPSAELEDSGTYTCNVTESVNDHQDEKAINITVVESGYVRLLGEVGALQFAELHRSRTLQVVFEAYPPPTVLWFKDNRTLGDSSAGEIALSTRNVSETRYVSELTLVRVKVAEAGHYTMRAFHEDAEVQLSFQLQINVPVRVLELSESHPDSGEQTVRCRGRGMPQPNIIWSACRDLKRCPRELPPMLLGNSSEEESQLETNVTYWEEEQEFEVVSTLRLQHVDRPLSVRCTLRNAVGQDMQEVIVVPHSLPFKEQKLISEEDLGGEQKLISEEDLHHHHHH
# B1: human PDGFRb.mFc (Fc fusion)
# chain: LVVTPPGPELVLNVSSTFVLTCSGSAPVVWERMSQEPPQEMAKAQDGTFSSVLTLTNLTGLDTGEYFCTHNDSRGLETDERKRLYIFVPDPTVGFLPNDAEELFIFLTEITEITIPCRVTDPQLVVTLHEKKGDVALPVPYDHQRGFFGIFEDRSYICKTTIGDREVDSDAYYVYRLQVSSINVSVNAVQTVVRQGENITLMCIVIGNEVVNFEWTYPRKESGRLVEPVTDFLLDMPYHIRSILHIPSAELEDSGTYTCNVTESVNDHQDEKAINITVVESGYVRLLGEVGTLQFAELHRSRTLQVVFEAYPPPTVLWFKDNRTLGDSSAGEIALSTRNVSETRYVSELTLVRVKVAEAGHYTMRAFHEDAEVQLSFQLQINVPVRVLELSESHPDSGEQTVRCRGRGMPQPNIIWSACRDLKRCPRELPPTLLGNSSEEESQLETNVTYWEEEQEFEVVSTLRLQHVDRPLSVRCTLRNAVGQDTQEVIVVPHSLPFKEPRGPTIKPCPPCKCPAPNLLGGPSVFIFPPKIKDVLMISLSPIVTCVVVDVSEDDPDVQISWFVNNVEVHTAQTQTHREDYNSTLRVVSALPIQHQDWMSGKEFKCKVNNKDLPAPIERTISKPKGSVRAPQVYVLPPPEEEMTKKQVTLTCMVTDFMPEDIYVEWTNNGKTELNYKNTEPVLDSDGSYFMYSKLRVEKKNWVERNSYSCSVVHEGLHNHHTTKSFSRTPGK
# notes: Soluble dimeric construct with mouse Fc; also called hPDGFRb.mFc; soluble human PDGFR-beta.mFc
# B2: H4H3107S (antibody, human IgG4, V domains shown)
# VH: QVQLVESGGGFVQPGGSLRLSCAASGFTFTNYAMSWVRQAPGKGLEWVSAISGVGGSTYYADSVKGRFTISRDTSKNMLYLQMNSLRAEDTAVYYCAKAPHWGPFGSWGQGTLVTVSS
# VL: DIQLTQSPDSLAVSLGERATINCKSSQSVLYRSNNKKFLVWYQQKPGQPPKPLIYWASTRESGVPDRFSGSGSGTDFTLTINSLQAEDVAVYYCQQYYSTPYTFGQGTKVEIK
# notes: human IgG4 Fc (H4H prefix)
# Assays:
# human PDGF-BB = human PDGF-BB (human, UniProt P01127 82-190); experiment: SPR (Biacore 3000), 30 nM ligand over hPDGFRb.mFc captured by anti-mouse Fc, no antibody
# Text: Real-time binding response was monitored throughout the course of the assay and was compared to the binding response measured when PDGF ligand was applied over the derivatized captured control surface in the absence of captured antibody.
# hPDGFRb.mmh [1] = target: T2, hPDGFRb.mmh (human, UniProt P09619 33-531); experiment: Octet BLI cross-competition, 25 C; hPDGFRb.mmh on anti-Penta-His tips pre-saturated with mAb-1 H4H3310N (row 9)
# T2 construct: Soluble monomeric construct; also called soluble human PDGFR-beta.mmh
# Method: (§1) A cross-competition assay was conducted to assess the ability of select antibodies to compete with one another for binding to human PDGFR-beta. […] Each PDGFR-beta.mmh-coated sensor tip was saturated for 5 min with a first anti-PDGFR-beta antibody (Mab #1; 50 μg/mL). Next, each sensor tip was saturated with a solution of a second anti-PDGFR-beta antibody (Mab #2). The real time response of Mab #2 binding to PDGR-beta.mmh pre-complexed with Mab #1 was then monitored. All assays were performed at 25° C. with a flow rate of 1000 rpm on an Octet RED384 biosensor in Octet HBST buffer according to manufacturer's instructions (ForteBio Corp., Menlo Park, Calif.). Results are illustrated in FIG. 2.
# hPDGFRb.mmh [2] = target: T2, hPDGFRb.mmh; experiment: Octet BLI cross-competition, 25 C; hPDGFRb.mmh on anti-Penta-His tips pre-saturated with mAb-1 H4H3365N (row 2)
# Method: as §1
# hPDGFRb.mmh [3] = target: T2, hPDGFRb.mmh; experiment: Octet BLI cross-competition, 25 C; hPDGFRb.mmh on anti-Penta-His tips pre-saturated with mAb-1 H4H3305N (row 8)
# Method: as §1
# hPDGFRb.mmh [4] = target: T2, hPDGFRb.mmh; experiment: blocking ELISA, biot-hPDGFRb.mmh to coated PDGF-BB
# hPDGFRb.mmh [5] = target: T2, hPDGFRb.mmh; experiment: Octet BLI cross-competition, 25 C; hPDGFRb.mmh on anti-Penta-His tips pre-saturated with mAb-1 Control I (row 1)
# Method: as §1
# human PDGFRb.hFc [6] = target: T3, human PDGFRb.hFc (human); experiment: SPR, mAb captured, 37 C
# T3 construct: Soluble dimeric construct with human Fc; also called hPDGFRb.hFc
# Method: (§2) Antibodies, expressed as either mouse Fc (prefix H1M; H2M) or human Fc (prefix H4H), were captured on their respective anti-Fc sensor surfaces (Mab capture format). […] Kinetic association (kₐ) and dissociation (kd) rate constants were determined by processing and fitting the data to a 1:1 binding model using Scrubber 2.0 curve fitting software.
# hPDGFRb.mmh [7] = target: T2, hPDGFRb.mmh; experiment: SPR, mAb captured, 37 C
# Method: as §2
# [8] = target: T1, Macaca fascicularis PDGFRb.mmh; experiment: SPR, mAb captured, 37 C
# Method: as §2
# [9] = target: T4, full length human PDGFR-beta on HEK293 cells (human, UniProt P09619 33-1106); experiment: cell-based or functional assay
# [10] = target: T4, full length human PDGFR-beta on HEK293 …; experiment: cell-based or functional assay; remark: listed apart in the source
# hPDGFRb.mmh [11] = target: T2, hPDGFRb.mmh; experiment: Octet BLI cross-competition, 25 C; hPDGFRb.mmh on anti-Penta-His tips pre-saturated with mAb-1 H4H3103S (row 4)
# Method: as §1
# hPDGFRb.mmh [12] = target: T2, hPDGFRb.mmh; experiment: Octet BLI cross-competition, 25 C; hPDGFRb.mmh on anti-Penta-His tips pre-saturated with mAb-1 H4H3099S (row 6)
# Method: as §1
# human PDGFRb.hFc [13] = target: T3, human PDGFRb.hFc; experiment: SPR, mAb captured, 25 C
# Method: as §2
# hPDGFRb.mmh [14] = target: T2, hPDGFRb.mmh; experiment: SPR, mAb captured, 25 C
# Method: as §2
# [15] = target: T1, Macaca fascicularis PDGFRb.mmh; experiment: SPR, mAb captured, 25 C
# Method: as §2
# hPDGFRb.mmh [16] = target: T2, hPDGFRb.mmh; experiment: Octet BLI cross-competition, 25 C; hPDGFRb.mmh on anti-Penta-His tips pre-saturated with mAb-1 H4H3094P (row 5)
# Method: as §1
# hPDGFRb.mmh [17] = target: T2, hPDGFRb.mmh; experiment: Octet BLI cross-competition, 25 C; hPDGFRb.mmh on anti-Penta-His tips pre-saturated with mAb-1 H4H3374N (row 3)
# Method: as §1
# T4 sequence (P09619 33-1106 limits assumed): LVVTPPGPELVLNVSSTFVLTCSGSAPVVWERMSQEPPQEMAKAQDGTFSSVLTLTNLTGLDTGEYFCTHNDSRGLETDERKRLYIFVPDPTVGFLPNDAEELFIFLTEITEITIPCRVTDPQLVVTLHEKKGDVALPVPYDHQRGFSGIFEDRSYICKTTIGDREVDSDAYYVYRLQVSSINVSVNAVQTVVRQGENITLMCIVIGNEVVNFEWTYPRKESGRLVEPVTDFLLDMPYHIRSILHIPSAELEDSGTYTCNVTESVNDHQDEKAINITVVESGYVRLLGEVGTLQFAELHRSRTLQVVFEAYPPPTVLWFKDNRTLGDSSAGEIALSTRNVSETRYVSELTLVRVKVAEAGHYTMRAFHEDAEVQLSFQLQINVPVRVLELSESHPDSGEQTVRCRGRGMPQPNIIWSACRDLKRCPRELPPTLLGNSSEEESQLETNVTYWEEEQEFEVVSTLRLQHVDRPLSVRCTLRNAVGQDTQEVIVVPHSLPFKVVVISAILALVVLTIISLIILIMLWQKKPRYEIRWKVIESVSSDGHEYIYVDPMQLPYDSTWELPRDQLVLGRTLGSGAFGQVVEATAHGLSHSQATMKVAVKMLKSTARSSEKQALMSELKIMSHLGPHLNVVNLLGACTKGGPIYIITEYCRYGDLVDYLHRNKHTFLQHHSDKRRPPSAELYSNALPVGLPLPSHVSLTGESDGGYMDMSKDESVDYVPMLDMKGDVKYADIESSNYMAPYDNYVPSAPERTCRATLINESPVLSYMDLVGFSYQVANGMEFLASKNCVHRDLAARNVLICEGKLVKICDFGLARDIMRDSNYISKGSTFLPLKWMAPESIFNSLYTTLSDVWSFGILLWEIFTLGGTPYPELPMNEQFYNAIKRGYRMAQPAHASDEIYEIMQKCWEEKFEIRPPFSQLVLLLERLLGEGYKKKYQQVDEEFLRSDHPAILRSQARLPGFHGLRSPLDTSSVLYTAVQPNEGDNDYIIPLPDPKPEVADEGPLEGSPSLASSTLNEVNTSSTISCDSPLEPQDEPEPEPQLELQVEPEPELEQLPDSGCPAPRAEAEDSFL
# human PDGF-BB, sequence (P01127 82-190 limits assumed): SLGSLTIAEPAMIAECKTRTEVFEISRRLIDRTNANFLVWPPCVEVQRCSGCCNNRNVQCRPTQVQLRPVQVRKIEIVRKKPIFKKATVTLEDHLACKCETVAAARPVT
binder,measurement,setting,value
B1,binding result,human PDGF-BB,binds
B2,Response of mAb-2 Binding to hPDGFRβ.mmh Pre-Complexed with mAb-1 (nm),hPDGFRb.mmh [1],0.02 nm
same,Response of mAb-2 Binding to hPDGFRβ.mmh Pre-Complexed with mAb-1 (nm),hPDGFRb.mmh [2],0.32 nm
same,Response of mAb-2 Binding to hPDGFRβ.mmh Pre-Complexed with mAb-1 (nm),hPDGFRb.mmh [3],0.02 nm
same,% Maximum Blocking,hPDGFRb.mmh [4],83%
same,IC50,hPDGFRb.mmh [4],0.066 nM
same,Response of mAb-2 Binding to hPDGFRβ.mmh Pre-Complexed with mAb-1 (nm),hPDGFRb.mmh [5],0.28 nm
same,Kd,human PDGFRb.hFc [6],0.165 nM
same,koff,human PDGFRb.hFc [6],0.000115 s⁻¹
same,kon,human PDGFRb.hFc [6],695000 M⁻¹ s⁻¹
same,t1/2,human PDGFRb.hFc [6],101 min
same,Kd,hPDGFRb.mmh [7],1.45 nM
same,koff,hPDGFRb.mmh [7],0.000879 s⁻¹
same,kon,hPDGFRb.mmh [7],605000 M⁻¹ s⁻¹
same,t1/2,hPDGFRb.mmh [7],13 min
same,Kd,[8],1.38 nM
same,koff,[8],0.000942 s⁻¹
same,kon,[8],683000 M⁻¹ s⁻¹
same,t1/2,[8],12 min
same,"IC50, blocking PDGF-BB (250 pM) activation, SRE-luciferase",[9],1.7e-10 M
same,"IC50, blocking PDGF-DD (400 pM) activation, SRE-luciferase",[9],2.4e-10 M
same,Percent Internalization (Relative to Control I),[10],92%
same,Response of mAb-2 Binding to hPDGFRβ.mmh Pre-Complexed with mAb-1 (nm),hPDGFRb.mmh [11],0.33 nm
same,Response of mAb-2 Binding to hPDGFRβ.mmh Pre-Complexed with mAb-1 (nm),hPDGFRb.mmh [12],0.01 nm
same,Kd,human PDGFRb.hFc [13],0.0801 nM
same,koff,human PDGFRb.hFc [13],4.24e-05 s⁻¹
same,kon,human PDGFRb.hFc [13],529000 M⁻¹ s⁻¹
same,t1/2,human PDGFRb.hFc [13],272 min
same,Kd,hPDGFRb.mmh [14],0.863 nM
same,koff,hPDGFRb.mmh [14],0.000191 s⁻¹
same,kon,hPDGFRb.mmh [14],221000 M⁻¹ s⁻¹
same,t1/2,hPDGFRb.mmh [14],61 min
same,Kd,[15],0.836 nM
same,koff,[15],0.000198 s⁻¹
same,kon,[15],236000 M⁻¹ s⁻¹
same,t1/2,[15],58 min
same,Response of mAb-2 Binding to hPDGFRβ.mmh Pre-Complexed with mAb-1 (nm),hPDGFRb.mmh [16],0.36 nm
same,Response of mAb-2 Binding to hPDGFRβ.mmh Pre-Complexed with mAb-1 (nm),hPDGFRb.mmh [17],0.31 nm
